Test results from patent US20250270315A1 (ELPISCIENCE SUZHOU BIOPHARMA, published 2025).

How the values were obtained:
[1] = molecular target: T1, mFc tagged human SIRPα v1 ECD recombinant protein (human, UniProt P78324 31-373); assay: competitive ELISA binning, mFc-SIRPα v1 ECD; competitor 042c
T1 construct: extracellular domain; Bought from Biointron; not shown: mouse IgG Fc (mFc) tag
Method: (§1) Competitive ELISA assay was used for epitope binning of purified chimeric antibodies. Briefly excessive competitor antibody and mFc tagged human SIRPα v1 ECD recombinant protein were co-incubated with ELISA microplate coated antibody. After washing, HRP labeled anti-mouse Fc 2nd antibody (Sigma) was added and incubated at 37° C. for 1 hour. Then, 100 μl/well of TMB solution (Biotechnology) was added. After incubation for 15 minutes at room temperature, the reaction was stopped by the addition of 50 μl of 1N HCl. OD 450 nm was read. Competition ratio was calculated. The antibodies that can compete each other for binding to SIRPα may have related binding epitopes.

[2] = molecular target: Human SIRPα v1 (antigen of the Octet and Biacore affinity measurements) (human, UniProt P78324 31-370, limits assumed); assay: BLI (Octet), 1:1 binding model
Chain of Human SIRPα v1 (antigen of the Octet and Biacore affinity measurements) (P78324 31-370 limits assumed): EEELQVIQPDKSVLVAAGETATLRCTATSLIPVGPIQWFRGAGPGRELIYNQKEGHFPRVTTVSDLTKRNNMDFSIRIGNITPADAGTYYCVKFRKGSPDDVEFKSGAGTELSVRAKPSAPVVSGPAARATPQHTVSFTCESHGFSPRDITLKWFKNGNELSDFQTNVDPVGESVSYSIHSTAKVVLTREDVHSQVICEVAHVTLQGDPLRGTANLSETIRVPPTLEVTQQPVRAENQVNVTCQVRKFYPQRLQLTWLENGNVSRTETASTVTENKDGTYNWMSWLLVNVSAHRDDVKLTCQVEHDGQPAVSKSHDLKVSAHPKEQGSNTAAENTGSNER
Method: The purified chimeric antibodies were characterized for binding affinity against human SIRPα v1, human SIRPα v2 using Bio-Layer Interferometry technology (Octet system). The association and dissociation curves were fit with 1:1 binding model, and the Ka/Kd/KD values for each antibody were calculated.

[3] = molecular target: T1, mFc tagged human SIRPα v1 ECD …; assay: competitive ELISA binning, mFc-SIRPα v1 ECD; competitor hu1H9G4
Method: as §1

[4] = molecular target: T2, human SIRPγ stably expressed on 293F cells (human, UniProt Q9P1W8 29-387); assay: FACS, 293F-human SIRPγ cells
T2 construct: whole, on cells
T2 sequence (Q9P1W8 29-387): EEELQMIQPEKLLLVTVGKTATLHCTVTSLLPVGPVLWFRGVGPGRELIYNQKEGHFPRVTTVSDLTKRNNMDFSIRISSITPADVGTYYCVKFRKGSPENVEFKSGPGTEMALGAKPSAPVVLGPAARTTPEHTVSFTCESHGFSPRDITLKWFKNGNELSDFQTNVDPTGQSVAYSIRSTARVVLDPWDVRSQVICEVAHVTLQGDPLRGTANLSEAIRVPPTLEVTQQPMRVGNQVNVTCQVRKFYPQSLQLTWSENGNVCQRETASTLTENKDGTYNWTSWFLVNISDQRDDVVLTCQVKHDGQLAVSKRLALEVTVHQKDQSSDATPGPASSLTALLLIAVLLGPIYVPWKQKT

[5] = molecular target: T3, human SIRPα v1 ECD recombinant protein (tag not given) (human, UniProt P78324 31-373); assay: competitive ELISA, mFc-CD47 ECD on coated SIRPα v1 ECD
T3 construct: extracellular domain; also called biotin labeled soluble human SIRPα v1 ECD recombinant protein; ELISA microplate coated human SIRPα v1 ECD
T3 sequence (P78324 31-373): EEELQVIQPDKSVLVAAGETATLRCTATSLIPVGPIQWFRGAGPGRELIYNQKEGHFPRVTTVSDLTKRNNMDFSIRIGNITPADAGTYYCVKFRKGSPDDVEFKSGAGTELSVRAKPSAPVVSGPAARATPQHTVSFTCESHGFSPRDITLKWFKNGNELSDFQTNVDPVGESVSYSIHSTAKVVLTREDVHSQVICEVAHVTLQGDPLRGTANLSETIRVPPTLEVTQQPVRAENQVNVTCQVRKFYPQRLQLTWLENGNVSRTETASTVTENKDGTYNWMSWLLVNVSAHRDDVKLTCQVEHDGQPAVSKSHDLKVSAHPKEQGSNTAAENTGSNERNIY
Method: (§2) Competitive ELISA assay was used to determine whether the purified chimeric antibodies can block CD47 and SIRPα interaction. Briefly, antibody and mFc tagged human CD47 ECD recombinant protein were co-incubated with ELISA microplate coated human SIRPα v1 ECD (FIGS. 6A and 6B) or human SIRPα v2 ECD (FIGS. 7A and 7B) recombinant protein. After washing, HRP labeled anti-mouse Fc 2nd antibody (Sigma) was added and incubated at 37° C. for 1 hour. Then, 100 μl/well of TMB solution (Biotechnology) was added. After incubation for 15 minutes at room temperature, the reaction was stopped by the addition of 50 μl of 1N HCl. OD 450 nm was read. Blocking ratio was determined by blockade of human CD47 ECD recombinant protein binding to ELISA microplate coated human SIRPα ECD recombinant protein. Other than 005, all antibodies as tested can block interaction between human CD47 and different human SIRPα variants.

[6] = molecular target: full length human SIRPα v1 with a small beta-gal fragment (ED) fused to its C-terminal, expressed in K562 … (human, UniProt P78324 31-504); assay: cell-based or functional assay
Chain of full length human SIRPα v1 with a small beta-gal fragment (ED) fused to its C-terminal, expressed in K562 … (P78324 31-504): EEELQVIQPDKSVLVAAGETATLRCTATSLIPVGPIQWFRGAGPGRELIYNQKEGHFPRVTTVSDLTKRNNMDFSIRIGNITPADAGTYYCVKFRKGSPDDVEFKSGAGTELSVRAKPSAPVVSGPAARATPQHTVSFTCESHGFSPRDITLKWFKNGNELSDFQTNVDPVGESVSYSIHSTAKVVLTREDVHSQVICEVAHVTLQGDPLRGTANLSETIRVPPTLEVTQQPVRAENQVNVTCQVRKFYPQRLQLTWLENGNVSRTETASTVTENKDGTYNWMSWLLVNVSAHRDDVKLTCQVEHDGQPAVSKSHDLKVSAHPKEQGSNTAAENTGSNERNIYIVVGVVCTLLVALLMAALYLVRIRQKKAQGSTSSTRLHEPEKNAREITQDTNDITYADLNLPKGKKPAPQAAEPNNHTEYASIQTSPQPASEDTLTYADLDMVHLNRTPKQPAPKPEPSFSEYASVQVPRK

[7] = molecular target: T4, cyno SIRPγ ECD recombinant protein (cyno); assay: ELISA, cyno SIRPγ ECD
T4 construct: extracellular domain

[8] = molecular target: T5, human SIRPβL ECD recombinant protein (6×His tagged) (human, UniProt Q5TFQ8 30-371); assay: ELISA, hSIRPβI ECD
T5 construct: given variously as SIRPBL, SIRPBI and SIRPβI; Bought from Biointron; also called human SIRPBL ECD; human SIRPBI ECD
T5 sequence (Q5TFQ8 30-371 limits assumed): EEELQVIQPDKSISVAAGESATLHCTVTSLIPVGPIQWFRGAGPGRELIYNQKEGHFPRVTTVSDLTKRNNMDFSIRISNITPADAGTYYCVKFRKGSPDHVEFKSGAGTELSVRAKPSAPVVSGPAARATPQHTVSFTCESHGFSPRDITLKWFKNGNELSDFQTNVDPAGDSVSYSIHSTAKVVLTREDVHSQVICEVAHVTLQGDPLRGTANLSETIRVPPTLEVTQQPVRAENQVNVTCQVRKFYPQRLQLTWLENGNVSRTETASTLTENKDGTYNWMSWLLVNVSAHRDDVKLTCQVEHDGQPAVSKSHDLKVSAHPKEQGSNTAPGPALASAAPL
From the text: (§3) Binding activity of the purified chimeric antibodies against SIRPβ and SIRPBI was detected by ELISA assay using recombinant proteins of human SIRPβ ECD (FIGS. 3A and 3B), human SIRPBI ECD (FIGS. 3D and 3E) and FACS assay using CHOK 1 cells stably expressing human SIRPB (FIG. 3C).

[9] = molecular target: T1, mFc tagged human SIRPα v1 ECD …; assay: competitive ELISA binning, mFc-SIRPα v1 ECD; competitor 025c
Method: as §1

[10] = molecular target: T6, human SIRPβ ECD recombinant protein (6×His tagged) (human, UniProt O00241 30-371); assay: ELISA, hSIRPβ ECD
T6 construct: extracellular domain; Bought from Sino Biological; also called hSIRPβ ECD; not shown: 6×His tag
T6 sequence (O00241 30-371): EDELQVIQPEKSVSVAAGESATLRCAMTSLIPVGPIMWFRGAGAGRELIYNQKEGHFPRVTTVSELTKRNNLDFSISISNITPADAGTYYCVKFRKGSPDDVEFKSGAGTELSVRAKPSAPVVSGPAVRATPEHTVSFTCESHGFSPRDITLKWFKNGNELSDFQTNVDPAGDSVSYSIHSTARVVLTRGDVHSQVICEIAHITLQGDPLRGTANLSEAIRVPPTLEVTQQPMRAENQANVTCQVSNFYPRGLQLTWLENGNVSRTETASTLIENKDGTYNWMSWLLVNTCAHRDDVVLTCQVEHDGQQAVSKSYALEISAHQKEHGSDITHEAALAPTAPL
From the text: as §3

[11] = molecular target: T7, full length human SIRPα v1 stably expressed on CHOK1 or 293F cells (human, UniProt P78324 31-504); assay: FACS, CHOK1-hSIRPα v1 cells
T7 construct: whole, on cells; also called CHOK1-human SIRPα v1; CHOK1-hSIRPα v1
T7 sequence (P78324 31-504): as the sequence (P78324 31-504) above

[12] = molecular target: T8, human SIRPα v2 ECD recombinant protein (tag not given) (human); assay: competitive ELISA, mFc-CD47 ECD on coated SIRPα v2 ECD
T8 construct: extracellular domain; also called ELISA microplate coated human SIRPα v2 ECD
Method: as §2

[13] = molecular target: T9, C57BL/6 mouse SIRPα ECD recombinant protein (6×His tagged) (C57BL/6 mouse, UniProt P97797 32-373); assay: ELISA, recombinant C57BL/6 mouse SIRPα ECD
T9 construct: extracellular domain; Bought from Biointron; not shown: 6×His tag
T9 sequence (looked up): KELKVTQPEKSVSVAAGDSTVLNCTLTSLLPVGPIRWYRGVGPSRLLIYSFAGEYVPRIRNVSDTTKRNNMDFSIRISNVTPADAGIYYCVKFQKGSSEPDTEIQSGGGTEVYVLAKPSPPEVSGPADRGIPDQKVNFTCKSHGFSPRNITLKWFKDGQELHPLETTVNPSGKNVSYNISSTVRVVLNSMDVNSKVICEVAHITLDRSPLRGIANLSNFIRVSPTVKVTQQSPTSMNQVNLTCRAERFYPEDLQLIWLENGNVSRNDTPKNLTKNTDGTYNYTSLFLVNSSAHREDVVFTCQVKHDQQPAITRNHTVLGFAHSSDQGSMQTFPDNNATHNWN
From the text: Species cross reactivity of purified chimeric antibodies was detected by ELISA assay using recombinant protein of C57BL/6 mouse SIRPα ECD (FIG. 5A) and FACS assay using CHOK 1 cells stably expressing cyno SIRPα (FIGS. 5B and 5C). All antibodies as tested bind to cyno SIRPα at different levels but have no species cross reactivity against C57BL/6 mouse SIRPα.

[14] = molecular target: T10, human SIRPβ stably expressed on CHOK1 cells (human, UniProt O00241 30-398); assay: FACS, CHOK1-hSIRPβ cells
T10 construct: whole, on cells; also called CHOK1-human SIRPB; CHOK1-hSIRPβ
T10 sequence (O00241 30-398): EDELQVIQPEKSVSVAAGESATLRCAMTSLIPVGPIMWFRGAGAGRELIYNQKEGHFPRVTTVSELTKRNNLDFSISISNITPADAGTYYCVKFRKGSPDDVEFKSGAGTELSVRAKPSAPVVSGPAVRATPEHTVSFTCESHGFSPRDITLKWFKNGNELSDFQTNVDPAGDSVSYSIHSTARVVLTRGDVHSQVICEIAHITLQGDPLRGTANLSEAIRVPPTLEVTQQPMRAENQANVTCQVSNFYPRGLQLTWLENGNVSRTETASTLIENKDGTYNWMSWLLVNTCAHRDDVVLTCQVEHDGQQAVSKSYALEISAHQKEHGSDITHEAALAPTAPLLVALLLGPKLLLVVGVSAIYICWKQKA
From the text: as §3

[15] = molecular target: T7, full length human SIRPα v1 stably …; assay: FACS, 293F-hSIRPα v1 cells

T1 sequence (P78324 31-373): as the sequence (P78324 31-373) above

B1: 073c (antibody, V domains shown)
VH: QIQLVQSGPELKKPGETVKISCKASGYTFTTYGMSWVKQAPGKGLKWMVWINTYSGVPTYADDFKGRFAFSLETSASTSYLQINNLKNEDTATYFCARDPHYYGSSPAWFVYWGQGTLVTVSA
VL: DIVMTQSQKFMSTTIGDRVSITCEASQIVGIAVAWYQQKPGQSPKLLIYSASNRYTGVPDRFTGSGSGTDFTLTISNMQSEDLANYFCQQYSAYPFTFGSGTKLEVK
notes: also called chimeric antibody 073c
% Competition [1]: 93.6% | Kd [2]: 6.07 nM | koff [2]: 0.00303 s⁻¹ | kon [2]: 499000 M⁻¹ s⁻¹ | % Competition [3]: 37.7% | EC50 [4]: 12.6 nM | TOP MFI [4]: 728 MFI | IC50 [5]: 2.74 nM | TOP blocking (%) [5]: 95.1% | SHP-1 recruitment blocking, IC50 [6]: 5.66 nM | SHP-1 recruitment blocking, TOP blocking (%) [6]: 51.2% | EC50 [7]: 45.5 nM | TOP OD450 [7]: 0.92 OD450 | EC50 [8]: 0.27 nM | TOP OD450 [8]: 2.64 OD450 | % Competition [9]: 9.1% | EC50 [10]: 2.14 nM | TOP OD450 [10]: 3.07 OD450 | EC50 [11]: 1.5 nM | TOP MFI [11]: 67800 MFI | IC50 [12]: 4.92 nM | TOP blocking (%) [12]: 82.8% | binding result [13]: no binding | EC50 [14]: 22.9 nM | TOP MFI [14]: 2630 MFI

B2: 005c (antibody, V domains shown)
VH: EVKLVESGGGLVQPGGSLSLSCAASGFTFTDYYMSWVRQPPGKALEWLGFIKNEANGYTTESSASVKGRFTISRDNSQSILYLQMNALRAEDSATYYCARYDYYGSNYNWYFDAWGTGTTVTVSS
VL: DIVMTQSQKFMSPSVGDRVSITCKASQNVRTAVAWYQQKPGQSPKVLIHLASKRHTGVPDRFTGSGSGTDFTLTISNVQSEDLADYFCLQHWIHPLTFGAGTKLELK
notes: also called chimeric antibody 005c
EC50 [15]: 3.88 nM | SHP-1 recruitment blocking, IC50 [6]: 3.85 nM | SHP-1 recruitment blocking, TOP blocking (%) [6]: 76.4%
